Reference: paper PMC2816023

Biological target: recombinant extracellular region of human calsyntenin-1 (residues 29-859) (human) (UniProt O94985)
Assay: SPR

Sequence of UniProt O94985 (O94985 29-859): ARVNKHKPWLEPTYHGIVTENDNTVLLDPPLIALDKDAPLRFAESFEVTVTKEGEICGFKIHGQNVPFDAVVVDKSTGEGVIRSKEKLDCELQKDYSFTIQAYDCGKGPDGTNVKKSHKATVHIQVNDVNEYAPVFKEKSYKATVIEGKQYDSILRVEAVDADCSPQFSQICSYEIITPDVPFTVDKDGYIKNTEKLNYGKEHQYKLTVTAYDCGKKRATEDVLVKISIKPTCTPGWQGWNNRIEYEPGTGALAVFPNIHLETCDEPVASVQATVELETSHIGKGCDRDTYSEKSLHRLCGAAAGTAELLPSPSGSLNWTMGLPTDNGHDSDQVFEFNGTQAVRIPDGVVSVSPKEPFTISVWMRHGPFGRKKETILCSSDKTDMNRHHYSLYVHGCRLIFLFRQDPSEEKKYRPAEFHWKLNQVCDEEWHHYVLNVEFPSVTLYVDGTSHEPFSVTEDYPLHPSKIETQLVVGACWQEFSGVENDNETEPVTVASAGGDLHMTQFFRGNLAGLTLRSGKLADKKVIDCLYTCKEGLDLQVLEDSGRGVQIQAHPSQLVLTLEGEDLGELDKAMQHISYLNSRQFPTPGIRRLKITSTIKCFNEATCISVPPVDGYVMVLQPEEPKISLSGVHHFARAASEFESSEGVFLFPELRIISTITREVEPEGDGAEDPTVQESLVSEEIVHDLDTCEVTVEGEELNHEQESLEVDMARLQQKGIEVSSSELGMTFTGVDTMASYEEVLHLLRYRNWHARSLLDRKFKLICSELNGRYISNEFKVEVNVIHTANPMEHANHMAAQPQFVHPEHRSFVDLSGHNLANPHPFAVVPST

“fibrillin-1 fragment PF1 (from UniProt P35555 45-2731) (domain or fragment)” was tested, and the Kd was 240 nM.
